Results published in US4532212A, “Process for the dissolution of peptides in non-aqueous and mixed non-aqueous/aqueous systems” (Shell Oil Company, priority 1983, dated 1985).
Entries after “also recorded” stand apart in the source; their conditions may differ.

Assays:
Type in all cases: physicochemical
[1] = Protein separation with crown ether/methanol: iso-electric focusing of fractions; conditions: 18-crown-6 in methanol
Method: Thus mixtures of cytochrome c and α-chymotrypsin (10 mg each, 8.1×10^-4 and 4×10^-4 m.mole, respectively) were treated with 18-crown-6 (28 mg, 0.11 m.mole) in methanol (2 ml). The red solution was filtered from undissolved protein (α-chymotrypsin) and dialysed against water, then buffer (Tris, pH 7.5, 0.10 M). Both filtrate and filtered protein fractions were examined using isoelectric focusing in order to establish the purity of the separations (results shown in Table 2).
Mixtures of cytochrome c, BSA and α-chymotrypsin (10 mg each, 8,1×10^-4, 1.4×10^-4 and 4×10^-4 m.mole respectively) were treated with 18-crown-6 (50 mg, 0.19 m.mole) in methanol (2 ml) and the resulting red solution was filtered and then dialysed against water then buffer (Tris, pH 7.5, 0.01 M) to remove crown ether and methanol.

[2] = Dissolution of peptides/proteins in organic solvents using crown ethers and cryptands; conditions: in words
Method: ^(a) Protein concentration was in the range 0.05-0.8 mM depending on
protein (i.e. cytochrome c, concentration was 0.8 mM, whereas, myoglobin
concentrtion was 0.1 mM). In a typical experiment, small portions of CE
(ca 2.0 mg, 7.6 × 10^-3 mmoles) were added to a suspension of
protein/peptide (5 mg) in methanol (2 ml) at 4-25° C. with stirrin
until the suspension dissolved.

[3] = Protein crystallisation from methanol/18-crown-6/(NH4)2SO4; conditions: crystalline composite from methanol/18-crown-6/(NH4)2SO4
Method: The solubilised protein solutions were stored at 4° C. within an outer tube containing ethyl acetate as precipitating co-solvent.

[4] = mixture cytochrome c + BSA + α-chymotrypsin

Substance | Iso-electric focusing results, pHI [1, 4] | Iso-electric focusing results, pHI ([1]; mixture cytochrome c + α-chymotrypsin) | Solubility in methanol with crown ether [2] | Circular dichroism / UV/visible spectroscopy of crystalline material (protein integrity) [3]
Bovine serum albumin (BSA): bovine serum albumin, 513 amino acid residues as printed | 5.5-6.0 | – | – | –
Cytochrome c: Cytochrome c from horse heart (Type III, from Sigma Chemical Co.), 104 residues | 9.35 | 9.35 | readily dissolves; also recorded: dissolves in methanol at a lower crown ether concentration than BSA | intact protein present
